Assay: label from the status in PepcDB records

Row | Sequence | protein production
1 | MVKSYQRFEQAAAFGVIASNANCVWIPASSGNSNGSGPGQLITSALEDVNIWDIKTGDLVSKLSDGLPPGASDARGAKPAECTYLEAHKDTDLLAVGYADGVIKVWDLMSKTVLLNFNGHKAAITLLQFDGTGTRLISGSKDSNIIVWDLVGEVGLYKLRSHKDSITGFWCQGEDWLISTSKDGMIKLWDLKTHQCIETHIAHTGECWGLAVKDDLLITTGTDSQVKIWKLDIENDKMGGKLTEMGIFEKQSKQRGLKIEFITNSSDKTSFFYIQNADKTIETFRIRKEEEIARGLKKREKRLKEKGLTEEEIAKSIKESYSSFILHPFQTIRSLYKIKSASWTTVSSSKLELVLTTSSNTIEYYSIPYEKRDPTSPAPLKTHTIELQGQRTDVRSIDISDDNKLLATASNGSLKIWNIKTHKCIRTFECGYALTCKFLPGGLLVILGTRNGELQLFDLASSSLLDTIEDAHDAAIWSLDLTSDGKRLVTGSADKTVKFWDFKVENSLVPGTKNKFLPVLKLHHDTTLELTDDILCVRVSPDDRYLAISLLDNTVKVFFLDSMKFYLSLYGHKLPVLSIDISFDSKMIITSSADKNIKIWGLDFGDCHKSLFAHQDSIMNVKFLPQSHNFFSCSKDAVVKYWDGEKFECIQKLYAHQSEVWALAVATDGGFVVSSSHDHSIRIWEETEDQVFLEEEKEKELEEQYEDTLLTSLEEGNGDDAFKADASGEGVEDEASGVHKQTLESLKAGERLMEALDLGIAEIEGLEAYNRDMKLWQRKKLGEAPIKPQGNAVLIAVNKTPEQYIMDTLLRIRMSQLEDALMVMPFSYVLKFLKFIDTVMQNKTLLHSHLPLICKNLFFIIKFNHKELVSQKNEELKLQINRVKTELRSALKSTEDDLGFNVQGLKFVKQQWNLRHNYEFVDEYDQQEKESNSARKRVFGTVI | failed
2 | MVKTFRQREEDIVRCNRCGFCEEVCPTYKATGEEFSLARGRNRLMRQSMEGKLDLTKEPEINQHIYSCLLCGACVAACPSSVITDTLIKTARAEITRAKGQPFPIRMALRGVLANQRRLTLGAKVLRFYQRSGARWLARHIGFLNLMGSLGKAEGLLPAIPEKTLRVQLPQLLKKPMKPRHKVAYFAGCMINNFFTAVGEATLRVYQENDIEVVVPTSNCCGIPHEAYGDIEMQIKLAKENLDAFSRYEVEAIVTDCASCAHGLHSYAELLQDDPHYGPLAAQLAAKVKDASQYLVEIGFKKEMGPVNATVTYHDPCHAARGLKVKEQPREILKSIPGVKFVEMNESDWCCGGAGSYNVTHYELSRKILARKMDNFKKTGAEYLATSCPACLMQLAHGLDVYRLSGKAIHVMQILDQAYQNRAVRSKAKAG | failed
3 | MVKVAHVQLSSCCGCLVSLADTYEKLLDVLGAIDLVYSQTLADVREVPDDVDIILLEGSVCLSDHHAMEVALDSRKKAKILVALGACAATGNVTRFSKGNQPSKPVHDAFAPLTEVVKCDLAIPGCPPSPESIVAVVLAALNGDMEYLEPYAELAKYGSEACGCDLITKVINKSLCMGCGSCAAACPTRAVSMDAGRPLVDKEICIKCGSCSVQCPRIRFPDLIEKIE | failed
4 | MVKVLILGQGYVASTFVAGLEKLRKGEIEPYGVPLARELPIGFEDIKIVGSYDVDRAKIGKKLSEVVKQYWNDVDSLTSDPEIRKGVHLGSVRNLPIEAEGLEDSMTLKEAVDTLVKEWTELDPDVIVNTCTTEAFVPFGNKEDLLKAIENNDKERLTATQVYAYAAALYANKRGGAAFVNVIPTFIANDPAFVELAKENNLVVFGDDGATGATPFTADVLSHLAQRNRYVKDVAQFNIGGNMDFLALTDDGKNKSKEFTKSSIVKDILGYDAPHYIKPTGYLEPLGDKKFIAIHIEYVSFNGATDELMINGRINDSPALGGLLVDLVRLGKIALDRKEFGTVYPVNAFYMKNPGPAEEKNIPRIIAYEKMRIWAGLKPKWL | not failed
5 | MVLFVDFLLEWLEMMRTRVRETTYASYNSGIRQSIIPYFMDKKLTLTDIEENPKYLQDFYQHELSKGLSPNSVLRRHANIRKALQHAFHLGLIKSNPADRIERPKKQLEHHHHHH | failed
6 | MVLGEFAPWRLWSLAGSAKDWRGSKQPRAMTDLVTNQAWTLIDNGRAADALRLTTGPVALPQASAGLLMAHAAALKALGRTDEALTFNRRAVARAPGDRFSWYNLAATLGDLALDDEAEGAARKTIALGLDVPEVRLVLGKALQGLHRYDEAEATFVRALAARPSDATVHLNLAQLRWMRSGRSDEALAPLDAAIARHPADVTLRTIRSNVLTFAGDHAGADATLEDALTRAPGDLAVRIAAARAAGAVGDRARMLAHAREAARLAPGALESQTVLCEALLAAGQADVAARTAEALVAAAPDDQYALVLRNTAWRITGDAQGDLFRDYAALVRTDRLETPEGWDSLDAFLDALRDRMLELHDLKTHPLNQSLRGGSQVPSLDRSRDPLVQAFFACAHKAVARYIEALGAGEDPIRRRRASDFAFAGGWSVRLRSEGFHADHVHPRGWISSAFYLDLPGRFDDETTRAGWLRFGRPGCLTEPALEAEHFIKPERGTLALFPSCLWHGTQPFTDADHRLTIAFDVVPR | failed
7 | MVLLTMTKRLFKGLLAVSLAVSLHGGEVKEKKPVKPVKEDPQELAAKRVEAFSRFSNVVSEIEKKYVDKISISEIMTKAIEGLLSNLDAHSAYLNEKKFKEFQAQTEGEFGGLGITVGMRDGVLTVIAPLEGTPAYKAGVKSGDNILKINNESTLSMSIDDAINLMRGKPKTPIQITVVRKNEPKPLVFNIIRDIIKLPSVYVKKIKETPYLYVRVSGFDKNVTKSVLEGLKANPKAKGIVLDLRGNPGGLLNQAVGLSNLFIKEGVLVSQKGKNKEENLEYKANGRAPYTNLPIAVLVNGGSASASEIVAGALQDHKRAVIIGEKTFGKGSVQMLLPVNKDEAIKITTARYYLPSGRTIQAKGITPDIVIYPGKVPENENKFSLKEADLKHHLEQELKKIDDKTPNSKEADKDKKNEEEKEITPKMINDDIQLKTAIDSLKTWSIVDEKMDEKAPKKK | failed
8 | MVLPSGLALPPLEYTVALLAGTLVVTALLYALEPPINQRTVVALTPWMALGGALHAFHQPPIEAYRPVVTPLFGAPAVYLTTFVTLGVVWVTLTLFSVRRGHSETISRNLGYIGIGLLTVLLVIAVVMALESGLLGLIWPTIAVIVATVVTAVTVLAVALWRTPVVVRMRYAAPTVVFAHMLDGVSTAVGADVIGITERTPIPARIMEFAGTLPTAPYLGKGWLFVFVKLLVAIGVVFLLDDYLEEDPVEASLLLAVVTAVGIGPATNNIVLFLFSPV | failed
9 | MVLPSSHRILVVDDNAVTRYSVRRVLEHHQFVVEEAGTGGEGLVRLAAEAFAAVVLDVNLPDMSGFDIVRTLRAEPRTALLPVVHVSAASIATGDMITGLDAGADAYLIHPVDPNVLVATLRTLLRARNAEEALRLSEARFREIFEHIGAPIAVVDAQLHTQEANAAFQRLIGSATPCEAINVPGLDQCATVQALTAALGRRERWSGTLSILRDGAVRETEWRVSPYREPDLGLLFVEDVTEQRLREREQRQELDTATSELAHQIAERQRTEIQLLQAQKMEALGKLTGGIAHDFNNLLTSIISGLDMIQLAVESNRIERVPRLAEIATGSAHRAAALTQRMLAFARKQSLDAQPFDVNARVRSLEDMLRRSIGENIALELQLAEAPLVAIADANQLENVVLNLVINARDALQGHGTIRIQSAPHTAYNDPELEDGDYVAVNVIDDGSGIDPAILSQVFEPFFTTKPIGEGTGLGLSMTYGFARQSGGTARITSTLGSGTTVALLLPRGLTVGEALPPPPPNAPRGRSQRILLVDDTDVVRMMVSEVLSDAGYHVIEAENADGALAQLRADAQIDMVVSDVGLPGMNGRDMADVARDLRPGLPILFITGYAENAATRQEFLAEGMALLPKPFSLNDLLNTVSRMLG | failed
10 | MVLWHKKDRKLGKHLRSVLSVSNNSPLSPAAFSGFKAVIKGIEKERIAGVGKTEGIKNEKTAGVGKTEGIEKERIAGVGKTEGIENTEGTEKAGEIKNNEKIKKAEETENILEIEKTFRNKKKQGVSKGDVDKENSTAFLYNTEAKKLTFHGNIYEILPLFLNVRNLYASLPFFEELQACAERLEKDPQDATALFQKAVLMYKARRFETALQLTAKVLKIIPDDHRVWYNRGVILSEMGRLEEAIAAYDRTIELEPAFEIAWDNKGVVLARLGRFEEALEIYDKILQKFPEYAEAWAGKGSIFLALDREEEALEAYSSALRIRPEYLEALTSTGSLLSRLGRYEESLKIYDKALQLVPKDPRLLAAKGFVLSEMGKQEEALENCNRALELQPGFVPALEIKVRILSEIGRQKNKTSQ | failed
11 | MVMLNTHVVECLQACGRCAAACDYCASSCLREGHGADMARCIALDLDCAAACRLCAAMMARESEFSTHMCTLCARICEVCGDECARHEPRHCQECATACHACASACRAMARPLEHHHHHH | not failed
12 | MVNDVEVTVTYTASDEDATVTYVDDDKGGAQVGDIVTVTGKTDDSTTYTVTIPDGYEYVGTDGGVVSSDGKTVTITFTADDSDNVVIHLKHGLEHHHHHH | not failed
13 | MVNEVQGIGIPTSHTSVQTTPTKEISRTNTINTVDESKTTIDPDQYKPKLELLSERLNEEMKRIGTDINFSYNDTIKGLVVSVKDANGDKVIREIPSKEAVELMQRMRDVIGIIFDKRG | failed
14 | MVNGSPHEKGCTYTALTEVAKTLNEEGIDTEIFWIGKKPLTGCTACKSCTKTGRCAFNDRANDFLDIAKGADGFIFGSPVHYASATGAITSFMDCVFYSDLLGGRQSFYLKPAATVISARRAGTTTTFDQLNKYFTLSEMPVISSRYWNMVHGAKPEDVKKDLEGLQIMRVLARNMAWFLKCKEAGMKAGVPLPVKEERMSTNFIRE | failed
15 | MVNHGYPLGRSLLSIAMAMLGALSLVFPLPLLTQDMVDSERSLPLLGDHPLEERLIDGMDEGIKKNYRGAIAIFTELILLDPSYADAYFNRGIARARIADYQGAITDHSQAITLNPQLAEAYKARGKIYWQLGEQAQAIADLEAALALFSDQENLVSQREAWEQLQTWHGNP | failed
16 | MVNTNLEELRTQVDQLNIDLLELISKRANLVQEIGKIKGTQGSLRFDPLREREMLNTILAANEGPFEDSTVQKLFKEIFKAGLELQEEDHSKALLVSRKNKKEDTIVTVKGLPIGNGEPVFVFGPCSVESYEQVAAVAESIKAKGLKLIRGGAFKPRTSPYDFQGLGLEGLKILKRVSDEYGLGVISEIVTPADIEVALDYVDVIQIGARNMQNFELLKAAGRVDKPILLKRGLSATIEEFIGAAEYIMSQGNGKIILCERGIRTYEKATRNTLDISAVPILKKETHLPVMVDVTHSTGRKDLLLPCAKAALAIEADGVMAEVHPDPAVALSDSAQQMDIPEFEEFWNAILASNLVPHKIK | not failed
17 | MVNVDGKREEDEEVIEVEGMGANKSARMLERLHVVHQYVARWVYSHGIPFNAIANDDLRRMLEVAGQFGPGVTPPSQYQLREPLLKEEVVRMKGLMEEQEDEWRVNGCSVTTDSWSDRKRRSIMNLCINCKEGTMFLSSKDCFDDSHTGEYIFAYVNEYCIKNLGGDHVVQVVTNNATNNITAAKLLKEVRPTIFWTFCATHTINLMVEGISKLAMSDEIVKMAKAFTIFIYAHHQTLSMMRSFTKRRDIVRPGIIGFASAFRTLKSLVEKEENLKVKRKKKKKLSKATTMVVL | failed
18 | MVPAPEAIRQALQERLLARLDHPDPLYRDLLQDYPRRGGKMLRGLLTVYSALAHGAPLEAGLEAATALELFQNWVLVHDDIEDGSEERRGRPALHRLHPMPLALNAGDAMHAEMWGLLAEGLARGLFPPEVLLEFHEVVRRTAYGQHLDLLWTLGGTFDLRPEDYFRMVAHKAAYYTAVAPLRLGALLAGKTPPAAYEEGGLRLGTAFQIVDDVLNLEGGEAYGKERAGDLYEGKRTLILLRFLEEAPPEERARALALLALPREAKPEAEVGWLLERLLASRALAWAKAEAKRLQAEGLALLEAAFQDLPGKEALDHLRGLLAALVERRA | not failed
19 | MVPCWNHGNITRSKAEELLSRTGKDGSFLVRASESISRAYALCVLYRNCVYTYRILPNEDDKFTVQASEGVSMRFFTKLDQLIEFYKKENMGLVTHLQYPVPLEEEDTGDDPEEDTVESVVSPPELPPRNIPLTASSCEAKEVPFSNENPRATETSRPSLSETLFQRLQSMDTSGLPEEHLKAIQDYLSTQLAQDSEFVKTGSSSLPHLKKLTTLLCKELYGEVIRTLPSLESLQRLFDQQLSPGLRPRPQVKG | not failed

From a protein production outcome set (Wang et al. 2014)
